For data set [1], the target named is T1, MutSΔC800 D246C (UniProt P23909 1-800, D246C).
T1 sequence: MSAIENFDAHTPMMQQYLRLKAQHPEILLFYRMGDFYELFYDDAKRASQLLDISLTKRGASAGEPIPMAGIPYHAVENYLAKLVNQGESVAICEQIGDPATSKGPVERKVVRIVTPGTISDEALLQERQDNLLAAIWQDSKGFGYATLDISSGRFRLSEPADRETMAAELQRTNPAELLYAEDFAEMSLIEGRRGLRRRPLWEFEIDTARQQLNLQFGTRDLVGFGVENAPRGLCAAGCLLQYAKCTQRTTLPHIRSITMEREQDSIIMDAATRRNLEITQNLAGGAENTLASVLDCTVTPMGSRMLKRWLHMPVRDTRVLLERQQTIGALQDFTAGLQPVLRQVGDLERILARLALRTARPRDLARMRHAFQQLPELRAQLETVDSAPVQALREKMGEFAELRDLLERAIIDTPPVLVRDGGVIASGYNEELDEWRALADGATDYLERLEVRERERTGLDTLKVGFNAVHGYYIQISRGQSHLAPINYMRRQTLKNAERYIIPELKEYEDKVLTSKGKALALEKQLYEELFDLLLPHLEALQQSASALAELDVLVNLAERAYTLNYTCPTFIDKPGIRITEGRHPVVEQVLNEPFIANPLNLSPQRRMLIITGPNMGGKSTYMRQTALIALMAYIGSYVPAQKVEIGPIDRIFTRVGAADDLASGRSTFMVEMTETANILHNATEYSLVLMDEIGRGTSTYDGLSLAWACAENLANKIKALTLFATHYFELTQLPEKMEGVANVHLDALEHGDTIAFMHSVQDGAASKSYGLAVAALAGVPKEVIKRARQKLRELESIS
Put plainly: SPR; 1 mM ATP; fitted maximum response 104 RU; SPR: 25 mM Hepes pH 7.5, 150 mM KCl, 5 mM MgCl2, 1 mM DTT, 0.05% Tween-20, 1 mM ATP (+20% glycerol for MutL-MutS assay); FP: same but 50 mM KCl, no ATP (+10% glycerol for full-length MutL); stopped-flow: 150 mM KCl, 10 uM ADP +/- 1 mM ATP, 15 C; FRET: 25 mM Hepes pH 7.2, 150 mM KCl, 5 mM MgCl2. The following applies: protein: recombinant; chain copies: 2; label: immobilized for SPR; blunt, one G:T mismatch.

Data set [2] addresses MutLLN40 N131C R162E/R266E/R316E (UniProt P23367 1-349, N131C;R162E;R266E;R316E). The data set is described as follows: fluorescence polarization; 50 mM KCl; binding completely abolished; SPR: 25 mM Hepes pH 7.5, 150 mM KCl, 5 mM MgCl2, 1 mM DTT, 0.05% Tween-20, 1 mM ATP (+20% glycerol for MutL-MutS assay); FP: same but 50 mM KCl, no ATP (+10% glycerol for full-length MutL); stopped-flow: 150 mM KCl, 10 uM ADP +/- 1 mM ATP, 15 C; FRET: 25 mM Hepes pH 7.2, 150 mM KCl, 5 mM MgCl2. The note with it: protein: recombinant; tags: His; label: 5' TAMRA; blunt.

For a further data set, the target named is MutS WT;MutL WT (Escherichia coli?;Escherichia coli?, UniProt P23909;P23367 1-853;1-615, |). The data set is described as follows: SPR; 1 mM ATP, end-blocked; MutL binds preformed MutS clamp; SPR: 25 mM Hepes pH 7.5, 150 mM KCl, 5 mM MgCl2, 1 mM DTT, 0.05% Tween-20, 1 mM ATP (+20% glycerol for MutL-MutS assay); FP: same but 50 mM KCl, no ATP (+10% glycerol for full-length MutL); stopped-flow: 150 mM KCl, 10 uM ADP +/- 1 mM ATP, 15 C; FRET: 25 mM Hepes pH 7.2, 150 mM KCl, 5 mM MgCl2. The following applies: protein: recombinant;recombinant; tags: ;His6; chain copies: 2;2; label: biotin at one end (immobilized), fluorescein at the other; blunt, one G:T mismatch.

The target of another data set is T2, MutS WT (UniProt P23909 1-853).
T2 sequence: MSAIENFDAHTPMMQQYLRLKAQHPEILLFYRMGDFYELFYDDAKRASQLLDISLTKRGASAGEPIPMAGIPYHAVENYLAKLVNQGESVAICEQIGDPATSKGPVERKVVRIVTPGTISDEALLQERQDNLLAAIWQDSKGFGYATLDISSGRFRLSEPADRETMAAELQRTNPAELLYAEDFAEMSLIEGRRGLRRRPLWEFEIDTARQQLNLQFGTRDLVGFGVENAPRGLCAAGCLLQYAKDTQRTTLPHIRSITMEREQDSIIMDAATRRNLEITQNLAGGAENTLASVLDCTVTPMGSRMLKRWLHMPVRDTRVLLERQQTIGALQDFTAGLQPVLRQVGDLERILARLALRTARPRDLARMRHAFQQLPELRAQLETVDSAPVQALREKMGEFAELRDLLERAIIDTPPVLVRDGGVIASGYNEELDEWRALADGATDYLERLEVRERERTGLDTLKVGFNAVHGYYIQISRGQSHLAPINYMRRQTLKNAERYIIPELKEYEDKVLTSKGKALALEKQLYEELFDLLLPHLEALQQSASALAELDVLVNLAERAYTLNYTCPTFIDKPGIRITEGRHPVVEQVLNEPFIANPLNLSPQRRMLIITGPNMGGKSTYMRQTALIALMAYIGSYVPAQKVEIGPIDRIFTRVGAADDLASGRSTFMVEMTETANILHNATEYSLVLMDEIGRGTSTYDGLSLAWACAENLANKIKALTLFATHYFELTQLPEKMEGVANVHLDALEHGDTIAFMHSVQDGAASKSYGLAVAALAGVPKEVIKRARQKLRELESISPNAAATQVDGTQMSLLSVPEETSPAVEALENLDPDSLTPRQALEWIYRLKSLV
The data set is described as follows: SPR; 1 mM ATP, end-blocked with anti-fluorescein Fab; sliding clamp; SPR: 25 mM Hepes pH 7.5, 150 mM KCl, 5 mM MgCl2, 1 mM DTT, 0.05% Tween-20, 1 mM ATP (+20% glycerol for MutL-MutS assay); FP: same but 50 mM KCl, no ATP (+10% glycerol for full-length MutL); stopped-flow: 150 mM KCl, 10 uM ADP +/- 1 mM ATP, 15 C; FRET: 25 mM Hepes pH 7.2, 150 mM KCl, 5 mM MgCl2. The following applies: protein: recombinant; chain copies: 2; label: biotin at one end (immobilized), fluorescein at the other; blunt, one G:T mismatch.

Data set [3] has as its target T1, MutSΔC800 D246C. Put plainly: SPR; 1 mM ATP, 150 mM KCl; fast off-rate; SPR: 25 mM Hepes pH 7.5, 150 mM KCl, 5 mM MgCl2, 1 mM DTT, 0.05% Tween-20, 1 mM ATP (+20% glycerol for MutL-MutS assay); FP: same but 50 mM KCl, no ATP (+10% glycerol for full-length MutL); stopped-flow: 150 mM KCl, 10 uM ADP +/- 1 mM ATP, 15 C; FRET: 25 mM Hepes pH 7.2, 150 mM KCl, 5 mM MgCl2. The note with it: protein: recombinant; chain copies: 2; label: biotin at one end (immobilized), fluorescein at the other; blunt, one G:T mismatch.

A further data set concerns the target MutLLN40 N131C (UniProt P23367 1-349, N131C). The data set is described as follows: SPR; 1 mM ATP, 150 mM KCl; SPR: 25 mM Hepes pH 7.5, 150 mM KCl, 5 mM MgCl2, 1 mM DTT, 0.05% Tween-20, 1 mM ATP (+20% glycerol for MutL-MutS assay); FP: same but 50 mM KCl, no ATP (+10% glycerol for full-length MutL); stopped-flow: 150 mM KCl, 10 uM ADP +/- 1 mM ATP, 15 C; FRET: 25 mM Hepes pH 7.2, 150 mM KCl, 5 mM MgCl2. The following applies: protein: recombinant; tags: His; label: biotin at one end (immobilized), fluorescein at the other; blunt, one G:T mismatch.

Data set [4] deals with T1, MutSΔC800 D246C. The data set is described as follows: stopped-flow FRET and FP; 10 uM ADP, no ATP; binding with kinking; SPR: 25 mM Hepes pH 7.5, 150 mM KCl, 5 mM MgCl2, 1 mM DTT, 0.05% Tween-20, 1 mM ATP (+20% glycerol for MutL-MutS assay); FP: same but 50 mM KCl, no ATP (+10% glycerol for full-length MutL); stopped-flow: 150 mM KCl, 10 uM ADP +/- 1 mM ATP, 15 C; FRET: 25 mM Hepes pH 7.2, 150 mM KCl, 5 mM MgCl2. The note with it: protein: recombinant; chain copies: 2; label: FRET: Alexa Fluor 594 on top T11 and Alexa Fluor 488 on bottom T10; FP: 5' TAMRA on top; blunt, one G:T mismatch.

The target of a further data set is MutSΔC800 D246C;MutL WT (Escherichia coli?;Escherichia coli?, UniProt P23909;P23367 1-800;1-615, D246C|). The data set is described as follows: stopped-flow FRET and FP; 400 nM MutL mixed, 1 mM ATP; more binding at equilibrium than MutSΔC800 alone; SPR: 25 mM Hepes pH 7.5, 150 mM KCl, 5 mM MgCl2, 1 mM DTT, 0.05% Tween-20, 1 mM ATP (+20% glycerol for MutL-MutS assay); FP: same but 50 mM KCl, no ATP (+10% glycerol for full-length MutL); stopped-flow: 150 mM KCl, 10 uM ADP +/- 1 mM ATP, 15 C; FRET: 25 mM Hepes pH 7.2, 150 mM KCl, 5 mM MgCl2. The note with it: protein: recombinant;recombinant; tags: ;His6; chain copies: 2;2; label: FRET: Alexa Fluor 594 on top T11 and Alexa Fluor 488 on bottom T10; FP: 5' TAMRA on top; blunt, one G:T mismatch.

Substitutions are numbered along the chain they refer to.

B1: 41-bp G:T mismatch DNA (dsDNA)
DNA 1: ATAGGACGCTGACACTGGTGCTTGGCAGCTTCTAATTCGAT
DNA 2: ATCGAATTAGAAGCTGCCAGGCACCAGTGTCAGCGTCCTAT
Take B1: the binding result with MutSΔC800 D246C [1] is “binds”.

B2: 41-bp homoduplex, TAMRA (dsDNA)
DNA 1: B1 DNA 1
DNA 2: B1 DNA 2 with G20A
Consider B2, for which the binding result in data set [2] is recorded as “no binding”.

B3: 100-bp G:T mismatch DNA (dsDNA)
DNA 1: AAACAGGCTTAGGCTGGAGCTGAAGCTTAGCTTAGGATCATCGAGGATCGAGCTCGGTGCAATTCAGCGGTACCCAATTCGCCCTATAGGCATCCAGGTT
DNA 2: AACCTGGATGCCTATAGGGCGAATTGGGTACCGCTGAATTGCACCGAGCTTGATCCTCGATGATCCTAAGCTAAGCTTCAGCTCCAGCCTAAGCCTGTTT
As for B3, the binding result is given as “binds” with MutS WT;MutL WT, “binds” with MutS WT, “binds” with MutSΔC800 D246C [3] and “no binding” with MutLLN40 N131C.

B4: 45-bp G:T mismatch DNA (dsDNA)
DNA 1: GTCATCCTCGTCTCAAGCTGCCAGGCACCAGTGTCAGCGTCCTAT
DNA 2: ATAGGACGCTGACACTGGTGCTTGGCAGCTTGAGACGAGGATGAC
As for B4, the binding result in the data set with MutSΔC800 D246C [4] and with MutSΔC800 D246C;MutL WT was “binds” each time.
